Source: US20210171647A1 (WUXI BIOLOGICS SHANGHAI, published 2021)

How the values were obtained:
Test in all cases: ELISA, antibody coated, OX40-ECD.His mutant supernatant; relative to silent alanine substitutions;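 note: captured OX40 mutant protein detected with HRP-labelled anti-His antibody, absorbance read-out, scaled to the mean signal of control mutants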
human OX40-ECD.His L149A = biological target: T1, human OX40-ECD.His L149A (human, UniProt P43489 29-214)
T1 construct: extracellular domain; not shown: C-terminal His-tag
T1 sequence (looked up): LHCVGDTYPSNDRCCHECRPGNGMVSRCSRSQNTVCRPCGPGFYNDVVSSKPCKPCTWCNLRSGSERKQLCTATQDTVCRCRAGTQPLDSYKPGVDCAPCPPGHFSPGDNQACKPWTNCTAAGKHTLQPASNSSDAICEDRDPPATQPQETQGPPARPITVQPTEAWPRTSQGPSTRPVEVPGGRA

human OX40-ECD.His V63A = biological target: T2, human OX40-ECD.His V63A (human, UniProt P43489 29-214)
T2 construct: extracellular domain; not shown: C-terminal His-tag
T2 sequence (looked up): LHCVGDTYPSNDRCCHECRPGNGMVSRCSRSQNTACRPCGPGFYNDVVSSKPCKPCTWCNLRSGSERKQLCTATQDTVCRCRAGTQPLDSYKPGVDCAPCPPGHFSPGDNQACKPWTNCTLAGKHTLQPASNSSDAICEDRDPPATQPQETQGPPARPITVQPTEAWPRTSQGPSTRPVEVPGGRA

human OX40-ECD.His P115A = biological target: T3, human OX40-ECD.His P115A (human, UniProt P43489 29-214)
T3 construct: extracellular domain; not shown: C-terminal His-tag
T3 sequence (looked up): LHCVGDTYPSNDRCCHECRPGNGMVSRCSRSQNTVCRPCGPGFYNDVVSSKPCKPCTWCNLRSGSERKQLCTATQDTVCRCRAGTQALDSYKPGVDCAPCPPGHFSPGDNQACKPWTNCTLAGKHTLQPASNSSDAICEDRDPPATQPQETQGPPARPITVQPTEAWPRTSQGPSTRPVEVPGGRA

human OX40-ECD.His I165A = biological target: T4, human OX40-ECD.His I165A (human, UniProt P43489 29-214)
T4 construct: extracellular domain; not shown: C-terminal His-tag
T4 sequence (looked up): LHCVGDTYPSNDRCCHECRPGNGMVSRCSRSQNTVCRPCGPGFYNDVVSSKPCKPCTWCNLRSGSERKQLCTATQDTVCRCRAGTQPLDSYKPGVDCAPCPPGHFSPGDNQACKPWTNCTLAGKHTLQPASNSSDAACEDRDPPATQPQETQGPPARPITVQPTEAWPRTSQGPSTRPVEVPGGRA

human OX40-ECD.His T145A = biological target: T5, human OX40-ECD.His T145A (human, UniProt P43489 29-214)
T5 construct: extracellular domain; not shown: C-terminal His-tag
T5 sequence (looked up): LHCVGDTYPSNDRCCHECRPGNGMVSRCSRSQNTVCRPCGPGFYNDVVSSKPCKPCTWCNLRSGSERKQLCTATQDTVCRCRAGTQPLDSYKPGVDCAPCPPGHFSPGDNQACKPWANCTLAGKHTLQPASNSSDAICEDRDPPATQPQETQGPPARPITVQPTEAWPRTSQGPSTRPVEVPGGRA

human OX40-ECD.His Q139A = biological target: T6, human OX40-ECD.His Q139A (human, UniProt P43489 29-214)
T6 construct: extracellular domain; not shown: C-terminal His-tag
T6 sequence (looked up): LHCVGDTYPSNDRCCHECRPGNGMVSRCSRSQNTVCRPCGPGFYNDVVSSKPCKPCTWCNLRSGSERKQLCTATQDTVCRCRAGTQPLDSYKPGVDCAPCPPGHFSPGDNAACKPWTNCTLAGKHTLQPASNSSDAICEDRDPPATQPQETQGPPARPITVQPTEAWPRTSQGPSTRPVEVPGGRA

human OX40-ECD.His Q103A = biological target: T7, human OX40-ECD.His Q103A (human, UniProt P43489 29-214)
T7 construct: extracellular domain; not shown: C-terminal His-tag
T7 sequence (looked up): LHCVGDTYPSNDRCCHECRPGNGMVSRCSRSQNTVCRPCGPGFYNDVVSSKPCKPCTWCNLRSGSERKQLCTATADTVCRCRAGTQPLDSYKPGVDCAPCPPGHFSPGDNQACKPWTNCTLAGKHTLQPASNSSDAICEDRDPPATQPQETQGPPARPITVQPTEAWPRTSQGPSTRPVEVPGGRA

human OX40-ECD.His G33A = biological target: T8, human OX40-ECD.His G33A (human, UniProt P43489 29-214)
T8 construct: extracellular domain; not shown: C-terminal His-tag
T8 sequence (looked up): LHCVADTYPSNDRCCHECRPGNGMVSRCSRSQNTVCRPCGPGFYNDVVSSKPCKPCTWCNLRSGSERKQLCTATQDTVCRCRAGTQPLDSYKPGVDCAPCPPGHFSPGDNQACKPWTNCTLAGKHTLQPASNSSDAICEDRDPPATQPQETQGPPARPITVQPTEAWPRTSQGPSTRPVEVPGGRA

human OX40-ECD.His S78A = biological target: T9, human OX40-ECD.His S78A (human, UniProt P43489 29-214)
T9 construct: extracellular domain; not shown: C-terminal His-tag
T9 sequence (looked up): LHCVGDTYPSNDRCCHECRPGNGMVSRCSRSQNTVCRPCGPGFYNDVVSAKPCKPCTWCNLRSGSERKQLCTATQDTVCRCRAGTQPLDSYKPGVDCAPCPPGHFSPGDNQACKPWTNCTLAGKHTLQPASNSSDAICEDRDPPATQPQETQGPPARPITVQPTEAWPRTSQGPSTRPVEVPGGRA

human OX40-ECD.His N88A = biological target: T10, human OX40-ECD.His N88A (human, UniProt P43489 29-214)
T10 construct: extracellular domain; not shown: C-terminal His-tag
T10 sequence (looked up): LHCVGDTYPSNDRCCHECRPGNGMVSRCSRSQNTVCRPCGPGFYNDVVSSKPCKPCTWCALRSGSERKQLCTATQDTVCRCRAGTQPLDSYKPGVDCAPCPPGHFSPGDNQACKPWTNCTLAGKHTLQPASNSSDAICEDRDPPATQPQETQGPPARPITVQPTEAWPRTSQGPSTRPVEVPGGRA

B1: 1.134.9-u1-IgG1L (antibody, V domains shown)
VH: QVQLQESGPGLVKPSGTLSLTCAVSGGSISSYNWWSWVRQPPGKGLEWIGEIYHGGNTNYNPSLKSRVTMSVDNSKNQFSLKLSSVTAADTAVYYCARAPGDWGGSPYFDFWGQGTLVTVSS
VL: SSELTQDPAVSVALGQTVRITCQGDNLRTYYASWYQQKPGQAPILLIYGRNKRPSGIPDRFSGSSSGNTASLTITGAQAEDEAAYYCNSRDSSGNPVVFGGGTKLTVL
notes: fully human IgG1, lambda
For B1, the “Fold Change” value (human OX40-ECD.His L149A) was 1, the “Fold Change” value (human OX40-ECD.His V63A) was 0.886 and the “Fold Change” value (human OX40-ECD.His P115A) was 0.632. For the same binder, the “Fold Change” value (human OX40-ECD.His I165A) was 0.871, the “Fold Change” value (human OX40-ECD.His T145A) was 0.675 and the “Fold Change” value (human OX40-ECD.His Q139A) was 0.999. For the same binder, the “Fold Change” value (human OX40-ECD.His Q103A) was 0.974, the “Fold Change” value (human OX40-ECD.His G33A) was 1 and the “Fold Change” value (human OX40-ECD.His S78A) was 1. For the same binder, the “Fold Change” value (human OX40-ECD.His N88A) was 0.429.
